Source: patent US20260062491A1

Assays:
[1] = target: CD40 on peripheral blood B cells (CD3- CD19+ cells of PBMC) (UniProt P25942); test: flow cytometry: PBMC stained with the secondary anti-His tag antibody alone (negative control); gate lymphoid, single, viable, CD3- CD19+ cells [panel B]
[2] = target: CD40 on peripheral blood B cells (CD3- CD19+ cells of PBMC) (UniProt P25942); test: flow cytometry: PBMC incubated with 0.043 uM His-tagged CD40L construct, secondary anti-His tag antibody; gate lymphoid, single, viable, CD3- CD19+ cells [panel B]

Molecule Control (antibody) has an MFI [1] of 99.

WT (ligand) was tested, and the MFI [2] was 1300.

B1: EPC10 (ligand, not shown: small tags and cut ends)
chain: GDQNPQIAAHVISEASSTTTSVLQWAEKGYYTMSNNLVTLENGKQLTVKRQGLYYIYAQVTFCSNREASSQAPFIASLCLKSPGRFERILLRAANTHSSAKHCGQQSIHLGGVFELQPGASVFVNVTDPSQVSHGTGFTSFGLFKL
B1 was tested, and the MFI [2] was 1180.

B2: EPC7 (ligand, not shown: small tags and cut ends)
chain: GDQNPQIAAHVISEASSKTTSVLQWAEKGYYTMSNNLVTLENGKQLTVKRQGLYYIYAQVTFCSNREASGQAPFIASLCLKSPGRFERILLRAANTHSSAKRCGQQSIHLGGVFELQPGASVFVNVTDPSQVSHGTGFTSFGLFKL
B2 showed an MFI [2] of 1360.
